Experiment [1] has as its target four maltose binding proteins arranged in tandem (4MBP).
Experiment [2] shares this target. This is another data set of the same source.
The target is the same in experiment [3]. This is another data set of the same source.

B1: human small heat shock protein HSPB8 (wild type) (natural protein)
chain: MADGQMPFSCHYPSRLRRDPFRDSPLSSRLLDDGFGMDPFPDDLTASWPDWALPRLSSAWPGTLRSGMVPRGPTATARFGVPAEGRTPPPFPGEPWKVCVNVHSFKPEELMVKTKDGYVEVSGKHEEKQQEGGIVSKNFTKKIQLPAEVDPVTVFASLSPEGLLIIEAPQVPPYSTFGESSFNNELPQDSQEVTCT
Molecule B1 showed a no. of weak aggregates of 4MBP per trace with 5 μM HSPB8 (No HSPB8: 1.16) (aggregates per trace) in experiment [1] of 0.64. In experiment [2], this molecule displayed a percentage of residues of 4MBP forming weak aggregates after unfolding and 5 s relaxation at 0 pN, with 5 μM HSPB8 (40% in the absence of chaperone) of 19%; a percentage of residues of 4MBP in tight aggregates (not unfolded at 63 pN) after unfolding and relaxation, with 5 μM HSPB8 of less than 2%.

B2: HSPB8-K141E, pathogenic mutant of human HSPB8 (natural protein)
chain: MADGQMPFSCHYPSRLRRDPFRDSPLSSRLLDDGFGMDPFPDDLTASWPDWALPRLSSAWPGTLRSGMVPRGPTATARFGVPAEGRTPPPFPGEPWKVCVNVHSFKPEELMVKTKDGYVEVSGKHEEKQQEGGIVSKNFTEKIQLPAEVDPVTVFASLSPEGLLIIEAPQVPPYSTFGESSFNNELPQDSQEVTCT
In experiment [1], B2 displayed a no. of weak aggregates of 4MBP per trace with 5 μM HSPB8-K141E (No HSPB8: 1.16) (aggregates per trace) of 0.85. The molecule also gave a percentage of residues of 4MBP forming weak aggregates after unfolding and relaxation, with 5 μM HSPB8-K141E (19% for wild-type HSPB8; 40% in the absence of chaperone) in experiment [3] of 31%.

These data come from paper PMC10360156.
